Assay: protease stability score; higher = more stable; yeast display proteolysis, trypsin and chymotrypsin;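 note: relative to predicted unfolded state with 0 unfolded-like and 1 meaning tenfold more protease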

Row | Sequence | protease stability score
1 | SEEKKLYDLAWELLLQSEKTGNEEIFERLADPHVRSHINGVDYIGRERFSELAHEINRELRIEDIHLHDVDLQGDKVNMSGSLTGHVNGKRHEYTMKIHFEKINGRWIIRSVSWE | 1.39
2 | DEEKKDLERLYELLLRSMFTGDWRALEELMDPNVLLQVNGKELHGWKLMVRVMREIRIEDHEVKHIELQGDKIHMDTRTHGEFDGRTDTTKTHVLAKKVDGQWRLKHYKID | 0.932
3 | DEDKHLARHLVDLIWESLKTGNEKLSKSLADPNVRIIVGDKEVVGRERVEKWLEKVMHEIRVKDLDERHVDVQGDKVNVYVDIHGNFDGKDDTTHFYFDIKKVNGVWLIERYEVH | 0.958
4 | QEELDIAREMIKMWTHHLETGDEEVTKHLADPTTRFIIDGVTYHGMHNTVRLWLEIRSHSRIRIRFVEVQGNKVNSDVELEYDLIVGEKTDTIIRRSHLYLHKVDGRWRIKEIEFR | 1.12
5 | DEDEKIIEDIIRKIWLAFMTGDEELYERLADPEDRLEVGEKTAVGREDVRRALHEWIRKLGIKHSHTRHMDFQGDKLIIHGEMLFNGRTFDLQLEFNVVNGRLKSMHVRIR | 1.58
6 | DERTEHSEENVKLFIEALRTGDFKTLLRLVDPHVRVIVIINGKEINNHGWEEFLRWMREEFERYPNLRVKVRHLDIQGDFVRVEGHLEVGDKSHRIHLHLLIINGVVELELYIFR | 1.92
7 | HRDEELSEEILRLILEILRTGDEDELRRLIDPHVRVSIGDKEKHGREWYLELVNVAGIKYIELKRIHVIGDKAHFETYVHVDGRDISLQFIILKINGKWFITSIRIETR | 1.4
8 | DDQEEWAKIAMEMILEFLKTGDEELMLELLDPNVRVHLLIDGRHFEDHGRKATRWVIRFIKNVQVKIHNIEYQGDKVHIDVHVDVNGRKTRSREIWTLVDGRIEHVDVQDR | 1.2
9 | SEEEHHVVRMMELLIDLLMTGDEEVFDSLVDPDVKSNINGVHSVGMESINEIFRRYVDFFKNVKVDVHLRDREAQGDKHITYGVRIERFDGKQFTIDTRLELKVVNGRIKDVKVDIK | 1.46
10 | DDRIRQVVEEWWKAVETNDPDKAKENVDKDVRVEVGDKQFRGSETLEKRIRDEKDHARVVVRMQSVSVHGDTVDVTYNVVVEVNGNPLRFKAQAFFRARNGRMQSIQFSFSKEDKKRVDG | 1.78
11 | SEEFEILFRLLEELDRAFETGDFKRFMELADPHTRLDVGEFHHWGREKVLEFWRHWRVKHVRVEFKRIDYQGDKLHTDGILRHTGEINGQETHEETRTNIHLIVINGRMHALEVRII | 2.01
12 | EEEKKNRAHQFLKAVERGDPEELRKQFDPNAHARVGDKRYHGMEEWAKDVMRRVRELRMSIKRLSVDVQGNDVKVNMNLVINRNGKPKEFREVWYFKIHNGHFVELHVQEEP | 1.24
13 | HDKEKEDKEWIKRLLDTIETGDPEQFSHLADPNVKAEFENHDSVGMEEVFKILEHLRIDHVRMKDMRIQGDWVHLITEMDGTINGKKIILKSRIIALKVNGRWVLTSTSLK | 1.42
14 | DEEDELFEIFIREWRRLVKTGNFKEIVDNADPHAKSVINGKELVGREHMSRLMLELGIKYYDERSWDVYGDKVVIHGREKFNGRESESIVFAEKVNGRWVLTKVEIR | 1.45
15 | DEEEDRLRRLAKTLLENWVTGDEEMHQRFADPNTRLNVDVDGKEIHRHGREEMLKDLRHELERVDHWELRLRDMKIFDGVVDIDGELILNINGKVIRQEVRIIMVIVNGRLRSVHFQVH | 1.26
16 | NELEKETHEITRRWIEILLTGNEEDWAKLADPHVRIDINGKKYVGREMVVEYLRELLDKIKNLQFHITRIHDQGDKSEIDGRLEYNGRKHEARVEIWIIDGKIRSEHYSIR | 2.2
17 | DELHETVEHAMERMIESSKTGDWRSLTKLMDPNVRMHIDGVDLIGWEIAVRVILEIRIEHVHIHHIDVQGDKMEVDVSVRIHFNGKHEDRQIVLFAEKVDGRWINRSVEIR | 1
18 | DEEKKQVKDMMELYFRLFVTGNEEILTHLADPDTRIEIDGVSRVGMEEFKRMLEEYLKRLGADHIELRHWDIKFFNGRAINRLHIHIHYGDKSEDVRVTLILEKIDGRWRNRSEHREVG | 0.771
19 | SEDTEMVRIVLEHIEHVWRTGDEHTLRELMDPHVRMDINGREHHGREHVSEIFEQEMRELGADHFRIDHKHVRIINGRIILYLRVKTHIGEKRLDIEIIIILSKVDGRWFIKEISIRHI | 1.11
20 | SEDEKITKEATRIFLENLHTGDERTMDDNLDPNVLLIINGVELVGREFIVTWLKELRLKRQDIKSIDMRLINGVAHVFMDIHVEGNYNGRDRRSDEELRYIIRKIDGRWSIESVEIHIR | 1.22
21 | DDDHLRKVEDFMRAQLEGDPDRLKQLADPNVRMNVGEKKVHGMQDIATEQASTYKTARYEIKSLDSKTEGDKVVITMRVQADNNGQPHDETFHLKARLENGKIVEQSKENDG | -0.531
22 | SKEEKDYWEFAEIWISDLLTGDEDLRKHLHDPDVRYHYHQGDKTFETHGMEEVLKLDKDLWRRLGVKHLEIHRVEVQGDKIHLDARLQVGDKSTEVHILLIVVNGKVKHIHIFVH | 1.2
23 | DEHDQHLKEWLDILLEVISTGDESRLQEMLDPNARLDVNGRKIHGRDEVLRAFHDHLDRFDHLHDLRIEHSNTVDGKAYIEGRDDGVVDGKRVFLRTRYFIITVNGKVHEVKIEID | 1.92
24 | DEDEKFTKEVIELWIRALRTGDEHTLMRLMDPHVRFEDENYSLHGREDVSRWLIKLLVHLRLEESDEHDSKIIGDKAHLHITSNHIFNGKELHMEIHIIVFKINGRWFVHEVRFR | 1.72
25 | SEEERMTHEATRDLIETILTGDENILRKLADPNMIINVRQGEKDIRIHGRHDYIRWVKLLGVDHVQVRDIHFQGDKATIHLEVEVNGRSINMIIIMRKVDGRWLITETREHHL | 1.09

Row | Sequence | protease stability score
26 | DEDEELAKKAVEEFFTAWETGNEERLEELMDPNVRSHINGVDLHGMERTSEYIRRLGHTKVETYLRRVRVFENRVEVDGDIIVDGRKHKFHLDMRKINGRWFIHRVSVK | 2.42
27 | EDEKEFIERFARILLHARFTGDWKTLLELMDPNARITIEIGDKILEFHGMEQWIRENDKTEKKIKNITIHIEDMRIVNGVLEVDIHVHIGDKKYDFRIIVVVINGKVRQLEIKVE | 2.08
28 | SEDERVAFELVVIWSEALITGDEHTSIELLDPNTRIIFNGRDRHGRTFLQEWMKQLRVERIRIHIHHINLQGDKLKVFSELRFVGNVDGVRDEIKTEVVVFLDKIDGRWIVSHIDVH | 2.22
29 | NDDQKELEHIMKLLSRALETGDEEKLRELFDPHTRIHINGVTRIGWEHMKHHFEDLGLSNFHFHLRVRHFDVQGDKARVEGELVVNFNGKETSHDVEWRLEKVNGRWIVKSIIVG | 2.27
30 | NEDEDKMKEWIETLHKSLETGDEKTLSKLFDPRVQYDIGDKKYHGWRHYLELILRIDHERREIHHVEVVNGRVEIDVRVHIHINGQDYEKKTILHVEKIDGKWLNKKVQIV | 1.16
31 | DEERKFWEEVMRLMREAFETGDEHLIERMADPHVRINIIVDGREIEFHGWEILVDLMKFVKGMQFTLKDSDIINGVLKIDGKTRQGDKITDVEIEFHVVNGRVKEIHVHIL | 2.48
32 | DERKKDAERMVEWIMHLWETGNFERLFRLADPHVRFILHQGDKELHFHGRELVEEAIFRLLLHIRIDDRIDRRVHIFPNRLDIHGQVHVHVGDKRHDLIIHIEVFIIDGKLKRIEIEIE | 1.49
33 | SEKDQALTEMLEIFLQVHRTGNEEDMHRLADPNARSVYNGQDLHGWEHVFNIMRRIDHIHHVTVKRVEYFDGRVSLDGHINIEIGDKSYHIDISISLRKVDGQWHIESIEFI | 0.721
34 | DDEEEILKEFVRIFREVWLTGDFHALLRLADPNVRQELHVNGREIHNHGREAMSDWHHFMRKFFKGMTIIEHTSYLIDGRIHIEGTWSFDGVDFRTHIHQVVIDGRIEHVQLTIH | 0.177
35 | SELHEEVRHIAEQWVKSWITGDEHLLQKLADPHVRFKIGDKSNHGRENVIKEIRRLEEEHGAEERIIITHVRVVGDKYELHGTYELRIGDKHETRHLHIEIWVVNGVVKEIDIQID | 1.07
36 | SEEEEEADRLEEHWVKSLLTGDEEELAKNADPNTRLDIDGKIVHGMEHFIRFFSEIFKRVDHTEIRIRDSKFDGDKIHNRVEILIRFNGRTIRIDVRIIMRKVDGRWIHESMHIE | 1.9
37 | SEDERVAEELLRLLSEYLKTGDEQIVTELLDPHTKMIIDGQTHIGMDVWQMLRKHIRVKNSDVHDVKFVDGRMHLDMRVHGHVNGVDVTRRLHVHTHKINGRWHIKEIHIE | 1.46
38 | DHEHEEFEENLEHFEHHMKTGDFELLLKLADPHVKIHVNGRDYHGWEELKRVLETLGISKVKVEFHRIHLINGVAFNDGKMEVNGVHTKTHYVAKKVNGRWFMRSMEMN | 0.775
39 | DEDEELVRHAYEDWLHTVRTGDEHTLNKLFDPHVRMHYDGVESHGWRIAHHFHRRFKNMQVRIDDEHIEVYGEFARVESKITLDVGEYKIDLTLIVIMIKVNGRWKIHSVRIEKR | 1.17
40 | SEEHRDIEIARHIWVDMLRTGDERKSKELADPHVQIHFENRIYHGREEWERMIHELIHTLGADHIEIRIHSIEVQGDKILVHFHIEFQVNGKYLRYDSRSVFIKINGQWHLRSVYII | 1.25
41 | SDEDHSSHLAHRWLLEILETGDEERLLRLADPNYRLDVDGRRFIGREDLLRWMKHVVERADHIELRDHHVDNQGDKVSSDVIVNERFDGKTERYRTHIVINKFDGKWVFHRFKIK | 0.928
42 | DHLEDTFRELTRILWEALHTGDWEIRRHYADPNARFQMHINGVELRDHGMDQLSRKYEEWYRRVDHYEVRIKDRRYQGDKMIIHVHIRVKINGKEIHYDVILYIIVVNGRIEEESEEVR | 1.34
43 | DELRTHAKKMILILFHHLLTGDEEWLHRFMDPSTRRDVGDKELHGMEQITHDIVKEIFLRGAEIHITIRTFRFQGNYLDANIEIKIIVNGQEIHFEVLIHIVKVDGVWLVRSMRFH | 1.43
44 | DEEEKEAEDFFHDWVHSMLTGDEDTLRRMIDPHVKIQVGDKEFHGMKWATRMYREIRIEDMRLRRVHVINGKADIHSITHTNINGRQEDIHITIIIEKVDGRWILRSVIIR | 2.13
45 | DEDEKIIQQFLREHTETNDTGDENTFKKQLDPHARTIFNGREYHGREDAYRILKELGWSRFEFHLRHVDIQGEKLHVMGLLRVDGKWLDVEIVANKINGRWVLTEFHIN | 0.417
46 | SEEDDQAEEFARKMITDFLTGNWKKMMDLFDPNVRLRWHVDGRDKHHIGREVVSEILRRYVEEIRIHSISIESVENYDGVSIVHSHYEWEVNGQKRETHVLLEFVIINGRARSISIHIH | 1.11
47 | SKEEKETEKAMEESLHIFETGDWKAFHDNVDPNVRLHIGDKDSHGRERATELYLTVVHHLGINHIQIDSFQINIQGDKVVINIDGTSHVGDKWSRIRVHIVERKIDGRWLISSFKMHIE | 1.07
48 | SEEEHVTDLALELWIRTHNTGNWHLLKRLLDPNTRVQVGNKIYHGMELISKEIFRKLLEMGFETHIEVEDSEYFEGHVRFRITIRLVVGDKEIILDTELLMIKFNGRWFITEIRIE | 0.686
49 | DEDKKHALEMAEMLFELIWTGDEHMLKELMDPNTRLFFNGRETHGWEFLSRELIHLRHRSDFRIRDVRIIGDYLHVDGEFHTILNINGVDIELHLHMEIVLFKIDGRWVVHEIRFL | 1.72
50 | SEHHKLLEDFLHLMQEALHTGNEDFIAELADPNVRINWNGKETHGRENLRRMLHEWRERWGIDRIEFHMKSISVQGDKIDLEMQVHINGRHETMHVRITVINGRLKDVRYELR | 1.66

Reference: the NTF2 design screens of Basanta et al. (2020)
